From PMC11218997, “Human cytomegalovirus deploys molecular mimicry to recruit VPS4A to sites of virus assembly” (PLOS Pathogens, 2024)

T1: VPS4A MIT domain (residues 1–84) (human, UniProt Q9UN37 1-84)
T1 construct: human VPS4A, MIT domain, residues 1-84 of UniProt Q9UN37; cloned into pOPT3G with an N-terminal GST and a human rhinovirus 3C site; the tag was removed with 3C protease; also called VPS4 MIT domain; source: E. coli T7 Express lysY/Iq, purified (glutathione Sepharose, 3C cleavage, SEC); not shown: GST, N-terminal, cleaved
T1 sequence (looked up): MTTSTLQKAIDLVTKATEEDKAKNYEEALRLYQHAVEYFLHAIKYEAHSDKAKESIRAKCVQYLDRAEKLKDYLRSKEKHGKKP

T2: VPS4A MIT domain (residues 1–84) (human, UniProt Q9UN37 1-84)
T2 chain: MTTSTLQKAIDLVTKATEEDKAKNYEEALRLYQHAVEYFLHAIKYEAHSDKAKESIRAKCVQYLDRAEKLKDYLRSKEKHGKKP


Assays:
[1] = biological target: T1, VPS4A MIT domain (residues 1–84); experiment: ITC; titrants (GST-pUL71, GST-CHMP6 or peptides) titrated into VPS4A MIT domain in the cell; 25°C; 50 mM HEPES pH 8, 100 mM NaCl, 0.5 mM TCEP; 19×2 μL or 12×3 μL injections; one-site binding model; settings: both partners purified
[2] = biological target: T2, VPS4A MIT domain (residues 1–84); experiment: ITC
[3] = system: pUL71 (YN fusion, TB71-YN); experiment: Bimolecular fluorescence complementation in TB71-YN infected MRC-5 cells; assay type: cell-based, HCMV; settings: MRC-5 infected with TB71-YN, MOI 1, 5 dpi
Description: HCMV strains AD169 [92], Toledo [93], Merlin [94], VR1814 [95] and TB40/E [96] and two clinical isolates (isolates 19 and 20, kindly provided by C. Sinzger, Ulm University Hospital, Germany) were used in this study. This panel was chosen as it covers the most commonly used cell culture passaged strains and two isolates that grow highly cell associated. In addition, bacmid derived viruses were used. Reconstituted virus from bacterial artificial chromosome (BAC) clone TB40-BAC4 of the endotheliotropic HCMV strain TB40/E (accession number EF999921.1.) served as wild type virus (WT) in this study. Generation and propagation of recombinant viruses, TBstop71 and TBrev71 have been described elsewhere. […] The recombinant virus TB71-YN used for bimolecular fluorescence complementation (BiFC) assay, was generated by markerless BAC mutagenesis from BAC clone TB40-BAC4 by inserting the sequences corresponding to a (GGGGS)2-linker sequence, the c-myc-tag and the N-terminal fragment of the yellow fluorescent protein (YFP) variant Citrine, comprising amino acids 1–173 (YN), before the stop codon of the UL71 open reading frame. […]

Molecule	Kd [1] [µM]	dH [1] [kcal/mol]	stoichiometry N [1]	Kd [2] [µM]	Citrine fluorescence (BiFC) [3]
EQIELPEVPSEPLPEK (domain or fragment, human, UniProt Q96FZ7 166-181, looked up, human CHMP6 MIM2; pGEX4T2, annealed primers pGEX CHMP6 MIM2 fwd and rev; also called GST-tagged CHMP6 MIM2 motif; source: E. coli, purified following bacterial expression; not shown: GST, N-terminal, kept) [GST-CHMP6 MIM2]	5.54	-2.37	0.84	15.3	
YC-VPS4A-FLAG-L64D (protein, left off: Citrine residues 156-239 with A206K (YC), N-terminal, kept | FLAG, C-terminal, kept) MTTSTLQKAIDLVTKATEEDKAKNYEEALRLYQHAVEYFLHAIKYEAHSDKAKESIRAKCVQYDDRAEKLKDYLRSKEKHGKKPVKENQSEGKGSDSDSEGDNPEKKKLQEQLMGAVVMEKPNIRWNDVAGLEGAKEALKEAVILPIKFPHLFTGKRTPWRGILLFGPPGTGKSYLAKAVATEANNSTFFSVSSSDLMSKWLGESEKLVKNLFELARQHKPSIIFIDEVDSLCGSRNENESEAARRIKTEFLVQMQGVGNNNDGTLVLGATNIPWVLDSAIRRRFEKRIYIPLPEEAARAQMFRLHLGSTPHNLTDANIHELARKTEGYSGADISIIVRDSLMQPVRKVQSATHFKKVCGPSRTNPSMMIDDLLTPCSPGDPGAMEMTWMDVPGDKLLEPVVCMSDMLRSLATTRPTVNADDLLKVKKFSEDFGQES					Citrine fluorescence was detected
